In US20170020994:

Legend:
[1] = system: RA-TALE_ICP4 (ICP4-TALE-VP16) (synthetic construct); assay: cell_activity; conditions: Fluc reporter with ICP4 promoter, 293T
[2] = system: RA-TALE_ICP0 (ICP0-TALE-VP16) (synthetic construct); assay: cell_activity; conditions: Fluc reporter with ICP0 promoter, 293T

Row | Sequence | activity (fold activation) [1] | activity (fold activation) [2]
1 | GGCAGATGGCGCGGATG (double strand) [ICP4 promoter TALE site] | 60 | –
2 | GGGACGCGCGGCCAT (double strand) [ICP0 promoter TALE site] | – | 20
